Results: patent US20110300138A1 (published 2011)

How the values were obtained:
TSHR260-AP (human) [1] = experiment: TSHR260-AP bridge ELISA (full length TSHR on wells, TSHR260-AP in solution); IgG 0.01 µg/mL diluted in assay buffer
TSHR260-AP (human) [2] = experiment: TSHR260-AP bridge ELISA (full length TSHR on wells, TSHR260-AP in solution); IgG 0.05 µg/mL diluted in HBD serum
[3] = target: TSHR260-alkaline phosphatase (TSHR260-AP) (human) (UniProt P05187); experiment: TSHR260-AP bridge ELISA, full length TSHR on wells; 0.5 µg/mL, diluted in assay buffer
TSHR260-AP (human) [4] = experiment: TSHR260-AP bridge ELISA (full length TSHR on wells, TSHR260-AP in solution); IgG 250 µg/mL diluted in assay buffer
[5] = target: TSHR260-alkaline phosphatase (TSHR260-AP) (human) (UniProt P05187); experiment: TSHR260-AP bridge ELISA, full length TSHR on wells; 0.1 µg/mL, diluted in assay buffer
[6] = target: TSHR260-alkaline phosphatase (TSHR260-AP) (human) (UniProt P05187); experiment: TSHR260-AP bridge ELISA, full length TSHR on wells; 0.01 µg/mL, diluted in assay buffer
[7] = target: TSHR260-alkaline phosphatase (TSHR260-AP) (human) (UniProt P05187); experiment: TSHR260-AP bridge ELISA, full length TSHR on wells; 1 µg/mL, diluted in assay buffer
[8] = target: TSHR260-alkaline phosphatase (TSHR260-AP) (human) (UniProt P05187); experiment: TSHR260-AP bridge ELISA, full length TSHR on wells; 0.01 µg/mL, diluted in HBD
TSHR260-AP (human) [9] = experiment: TSHR260-AP bridge ELISA (full length TSHR on wells, TSHR260-AP in solution); IgG 0.5 µg/mL diluted in assay buffer
TSHR260-AP (human) [10] = experiment: TSHR260-AP bridge ELISA (full length TSHR on wells, TSHR260-AP in solution); IgG 0.005 µg/mL diluted in HBD serum
[11] = target: human TSHR expressed in CHO cells (human) (UniProt P16473); experiment: cell-based or functional assay
[12] = target: human TSH receptor (TSHR), wild type, expressed in CHO cells (human) (UniProt P16473); experiment: cell-based or functional assay
[13] = target: human TSHR (thyroid stimulating hormone receptor) expressed in transfected CHO cells (human) (UniProt P16473); experiment: cell-based or functional assay
[14] = target: human TSH receptor (full length, wild type) expressed in CHO cells (human) (UniProt P16473); experiment: cell-based or functional assay
[15] = target: human TSHR (wild type, full length) expressed in CHO cells (human) (UniProt P16473); experiment: cell-based or functional assay
[16] = target: human TSH receptor (full length, wild type) expressed on CHO cells (human) (UniProt P16473); experiment: cell-based or functional assay
[17] = target: human TSH receptor (wild type), expressed on transfected CHO cells (human) (UniProt P16473); experiment: cell-based or functional assay
TSHR260-AP (human) [18] = experiment: TSHR260-AP bridge ELISA (full length TSHR on wells, TSHR260-AP in solution); IgG 0.1 µg/mL diluted in assay buffer
TSHR260-AP (human) [19] = experiment: TSHR260-AP bridge ELISA (full length TSHR on wells, TSHR260-AP in solution); IgG 10 µg/mL diluted in HBD serum
TSHR260-AP (human) [20] = experiment: TSHR260-AP bridge ELISA (full length TSHR on wells, TSHR260-AP in solution); IgG 0.05 µg/mL diluted in assay buffer

Mean absorbance at 405 nm (absorbance at 405 nm) (TSHR260-AP (human) [1]): 0.012
Mean absorbance at 405 nm (absorbance at 405 nm) (TSHR260-AP (human) [2]): -0.006
Mean absorbance at 405 nm (absorbance at 405 nm) [3]: -0.006
Mean absorbance at 405 nm (absorbance at 405 nm) (TSHR260-AP (human) [4]): 0.018
Mean absorbance at 405 nm (absorbance at 405 nm) [5]: -0.013
Mean absorbance at 405 nm (absorbance at 405 nm) [6]: 0.012
Mean absorbance at 405 nm (absorbance at 405 nm) [7]: -0.004
Mean absorbance at 405 nm (absorbance at 405 nm) [8]: 0.027
Mean absorbance at 405 nm (absorbance at 405 nm) (TSHR260-AP (human) [9]): -0.006
Mean absorbance at 405 nm (absorbance at 405 nm) (TSHR260-AP (human) [10]): -0.002
% Inhibition; 3 ng/mL pTSH + 10 µg/mL 5B3 IgG [11]: 7%
% Inhibition; 3 ng/mL pTSH + 100 µg/mL 5B3 IgG [11]: 7%
% Inhibition; 5B3 IgG 10 µg/mL + 3 ng/mL pTSH [11]: 0%
% Inhibition; 5B3 IgG 100 µg/mL + 3 ng/mL pTSH [11]: 0%
Cyclic AMP concentration in hypotonic medium; 1 µg/mL 5B3 IgG + 3 ng/mL pTSH [12]: 71.9 pmol/mL
Cyclic AMP concentration in hypotonic medium; 3 µg/mL 5B3 IgG + 3 ng/mL pTSH [12]: 75.7 pmol/mL
Cyclic AMP concentration in hypotonic medium; 3 µg/mL 5B3 IgG alone [12]: 1.9 pmol/mL
Cyclic AMP concentration in isotonic medium; 1 µg/mL 5B3 IgG + 3 ng/mL pTSH [12]: 39.5 pmol/mL
Cyclic AMP concentration in isotonic medium; 3 µg/mL 5B3 IgG + 3 ng/mL pTSH [12]: 42.5 pmol/mL
Cyclic AMP concentration in isotonic medium; 3 µg/mL 5B3 IgG alone [12]: 0.5 pmol/mL
% Inhibition; 3 ng/mL M22 IgG + 10 µg/mL 5B3 IgG [13]: 0%
% Inhibition; 3 ng/mL M22 IgG + 100 µg/mL 5B3 IgG [13]: 0%
Cyclic AMP concentration; 3 ng/mL M22 IgG + 10 µg/mL 5B3 IgG [13]: 44.7 pmol/mL
Cyclic AMP concentration; 3 ng/mL M22 IgG + 100 µg/mL 5B3 IgG [13]: 51.3 pmol/mL
Cyclic AMP concentration; 100 µg/mL 5B3 IgG [13]: 2.3 pmol/mL
% Inhibition; T1 serum + 100 µg/mL 5B3 IgG [14]: 4.9%
% Inhibition; T2 serum + 100 µg/mL 5B3 IgG [14]: 0%
% Inhibition; T3 serum + 100 µg/mL 5B3 IgG [14]: 14.4%
Cyclic AMP concentration; 100 µg/mL 5B3 IgG alone [14]: 1 pmol/mL
Cyclic AMP concentration; HBD + 100 µg/mL 5B3 IgG [14]: 2 pmol/mL
Cyclic AMP concentration; T1 serum + 100 µg/mL 5B3 IgG [14]: 94.9 pmol/mL
Cyclic AMP concentration; T2 serum + 100 µg/mL 5B3 IgG [14]: 62 pmol/mL
Cyclic AMP concentration; T3 serum + 100 µg/mL 5B3 IgG [14]: 54.2 pmol/mL
% Inhibition of T5 serum stimulation; 0.1 µg/mL 5B3 IgG [15]: 7%
% Inhibition of T5 serum stimulation; 1 µg/mL 5B3 IgG [15]: 4.1%
% Inhibition of T5 serum stimulation; 10 µg/mL 5B3 IgG [15]: 3.1%
% Inhibition of T5 serum stimulation; 100 µg/mL 5B3 IgG [15]: 12.5%
Cyclic AMP concentration; 0.1 µg/mL 5B3 IgG + T5 [15]: 59.4 pmol/mL
Cyclic AMP concentration; 1 µg/mL 5B3 IgG + T5 [15]: 61.3 pmol/mL
Cyclic AMP concentration; 10 µg/mL 5B3 IgG + T5 [15]: 61.9 pmol/mL
Cyclic AMP concentration; 100 µg/mL 5B3 IgG + T5 [15]: 55.9 pmol/mL
Cyclic AMP concentration; 100 µg/mL 5B3 IgG alone [15]: 1.1 pmol/mL
% Inhibition of M22 IgG (3 ng/mL) stimulation; 100 µg/ml 5B3 IgG [16]: 0%
% Inhibition of pTSH (1 ng/mL) stimulation; 10 µg/mL 5B3 IgG [16]: 0%
% Inhibition of pTSH (1 ng/mL) stimulation; 100 µg/mL 5B3 IgG [16]: 0%
Cyclic AMP concentration in hypotonic medium; 100 µg/mL 5B3 IgG alone [16]: 2.2 pmol/mL
Cyclic AMP concentration in isotonic medium; 100 µg/mL 5B3 IgG alone [16]: 1.4 pmol/mL
Cyclic AMP concentration; 1 ng/mL pTSH + 10 µg/mL 5B3 IgG [16]: 80.7 pmol/mL
Cyclic AMP concentration; 1 ng/mL pTSH + 100 µg/mL 5B3 IgG [16]: 79.3 pmol/mL
Cyclic AMP concentration; 3 ng/mL M22 IgG + 100 µg/ml 5B3 IgG [16]: 41.8 pmol/mL
Cyclic AMP concentration; 100 µg/mL 5B3 IgG alone (no TSH) [16]: 2.6 pmol/mL
Cyclic AMP concentration; 5B3 IgG 100 µg/mL alone [16]: 1.2 pmol/mL
% Inhibition (constitutive activity); 0.01 µg/mL 5B3 IgG [17]: 0%
% Inhibition (constitutive activity); 0.1 µg/mL 5B3 IgG [17]: 0%
% Inhibition (constitutive activity); 0.2 µg/mL 5B3 IgG [17]: 8.2%
% Inhibition (constitutive activity); 1 µg/mL 5B3 IgG [17]: 6.3%
% Inhibition (constitutive activity); 2 µg/mL 5B3 IgG [17]: 12.9%
% Inhibition; 5B3 IgG 0.1 µg/mL + T11 [17]: 29.8%
% Inhibition; 5B3 IgG 1 µg/mL + T11 [17]: 21.4%
% Inhibition; 5B3 IgG 10 µg/mL + T11 [17]: 25.4%
% Inhibition; 5B3 IgG 100 µg/mL + T11 [17]: 27%
% Inhibition; pTSH 3 ng/mL + 10 µg/mL 5B3 [17]: 0%
% Inhibition; pTSH 3 ng/mL + 100 µg/mL 5B3 [17]: 0.5%
Cyclic AMP concentration; 100 µg/mL 5B3 alone [17]: 0.9 pmol/mL
Cyclic AMP concentration; 5B3 IgG 0.1 µg/mL + T11 [17]: 17.7 pmol/mL
Cyclic AMP concentration; 5B3 IgG 1 µg/mL + T11 [17]: 19.8 pmol/mL
Cyclic AMP concentration; 5B3 IgG 10 µg/mL + T11 [17]: 18.8 pmol/mL
Cyclic AMP concentration; 5B3 IgG 100 µg/mL + T11 [17]: 18.4 pmol/mL
Cyclic AMP concentration; 5B3 IgG 100 µg/mL alone [17]: 1 pmol/mL
Cyclic AMP concentration; pTSH 3 ng/mL + 10 µg/mL 5B3 [17]: 66.9 pmol/mL
Cyclic AMP concentration; pTSH 3 ng/mL + 100 µg/mL 5B3 [17]: 63.9 pmol/mL
Cyclic AMP production (constitutive activity); 0.01 µg/mL 5B3 IgG [17]: 58.2 pmol/mL
Cyclic AMP production (constitutive activity); 0.1 µg/mL 5B3 IgG [17]: 58.8 pmol/mL
Cyclic AMP production (constitutive activity); 0.2 µg/mL 5B3 IgG [17]: 53.3 pmol/mL
Cyclic AMP production (constitutive activity); 1 µg/mL 5B3 IgG [17]: 54.4 pmol/mL
Cyclic AMP production (constitutive activity); 2 µg/mL 5B3 IgG [17]: 50.6 pmol/mL
Mean absorbance at 405 nm (absorbance at 405 nm) (TSHR260-AP (human) [18]): -0.013
Mean absorbance at 405 nm (absorbance at 405 nm) (TSHR260-AP (human) [19]): -0.006
Mean absorbance at 405 nm (absorbance at 405 nm) (TSHR260-AP (human) [20]): -0.009
Substance: 5B3 IgG (antibody)
